Tested on: Liver esterase from rabbit liver
Assay: Camptothecin release study from camptothecin grafted copolymer (esterase incubation, GPC at 370 nm)
Type: in vitro ADME
Details: copolymer approximately 10 mg/ml in Tris Buffer, pH=8.0, rabbit liver esterase, 37° C.
Description: Samples of camptothecin grafted copolymer were prepared at approximately 10 mg/ml in Tris Buffer, pH=8.0. Liver esterase from rabbit liver (Sigma-Aldrich E0887-IKU, Lot #061K74451) was added to the sample and the sample was incubated at 37° C. for up to 65 hours.
GPC analysis of the samples was made using an HPLC system consisting of a Waters Alliance 2995 with Waters 2410 Refractive Index Detector, Waters 2996 Photodiode Array Detector, and a Shodex Protein KW-803 column. The mobile phase used for the elution was phosphate buffered saline containing 10% absolute ethanol. The flow rate was set to 1 ml/min and the presence of camptothecin monitored at 370 nm. Ten microliter injections of the samples were made at each time point.

## Camptothecin PC-Copolymer [camptothecin grafted copolymer]
Time 0 h
  Camptothecin Released: 0.059 mg/mL
Time 1 h
  Camptothecin Released: 0.079 mg/mL
Time 2 h
  Camptothecin Released: 0.132 mg/mL
Time 3 h
  Camptothecin Released: 0.130 mg/mL
Time 4 h
  Camptothecin Released: 0.128 mg/mL
Time 17 h
  Camptothecin Released: 0.208 mg/mL
Time 26 h
  Camptothecin Released: 0.251 mg/mL
Time 41 h
  Camptothecin Released: 0.335 mg/mL
Time 65 h
  Camptothecin Released: 0.427 mg/mL
